Our source for the Kd and kon values is publication PMC6454087.

The target in this test is mouse rec1c sNASP variant protein (V281I, L282F) (mouse). As to the kind of experiment: BLI; Octet K2, 30 C; sNASP WT or variant immobilised on aminopropylsilane (APS) biosensors, histones in assay buffer at various concentrations (62.5 to 1,000 nM shown for H4), association 240 s; n = 4. A general note: BLI is a label-free optical method that tracks binding on a fibre tip over time.

B1: mouse histone H1a (natural protein)
chain: MSETAPVAQAASTATEKPAAAKKTKKPAKAAAPRKKPAGPSVSELIVQAVSSSKERSGVSLAALKKSLAAAGYDVEKNNSRIKLGLKSLVNKGTLVQTKGTGAAGSFKLNKKAESKAITTKVSVKAKASGAAKKPKKTAGAAAKKTVKTPKKPKKPAVSKKTSKSPKKPKVVKAKKVAKSPAKAKAVKPKASKAKVTKPKTPAKPKKAAPKKK
Broadly, the Kd is the concentration at which binding is half-saturated. In general, kon refers to the rate constant with which the complex forms. A lower kon goes with slower complex formation. Regarding B1, the Kd turned out to be 412 nM and the kon came out at 9590 M⁻¹ s⁻¹.
